These results are taken from patent publication US7071301.

Holding throughout (assay): cell-based or functional assay
In assay [1] the target is murine ecotropic retroviral receptor (ERR) (mouse) (UniProt Q09143).
Assay [2] addresses ERR Mutant 9 (mouse) (UniProt Q09143).
For assay [3], the target named is ERR Mutant 1 (mouse) (UniProt Q09143).
In assay [4] the target is ERR Mutant 2 (mouse) (UniProt Q09143).
The target of assay [5] is ERR Mutant 6 (mouse) (UniProt Q09143).
In assay [6] the target is ERR Mutant 8 (mouse) (UniProt Q09143).
Assay [7] deals with Chimera I (mouse-human chimeric receptor, first part from ERR) (mouse; human).
For assay [8], the target named is human H13 (human) (UniProt P30825).
The target in assay [9] is ERR Mutant 10 (mouse) (UniProt Q09143).
Assay [10] deals with ERR Mutant 7 (mouse) (UniProt Q09143).
Assay [11] concerns the target ERR Mutant 5 (mouse) (UniProt Q09143).
Assay [12] addresses Chimera III (H13 with NcoI-NcoI fragment from ERR) (human / mouse).
Assay [13] has as its target Chimera II (mouse-human chimeric receptor, last part from ERR) (human; mouse).
Assay [14] concerns the target ERR Mutant 4 (mouse) (UniProt Q09143).
The target of assay [15] is ERR Mutant 3 (mouse) (UniProt Q09143).
In assay [16] the target is ERR Mutant 11 (mouse) (UniProt Q09143).

UniProt P30825, sequence (P30825 other isoform, or with tags, fused parts or gaps): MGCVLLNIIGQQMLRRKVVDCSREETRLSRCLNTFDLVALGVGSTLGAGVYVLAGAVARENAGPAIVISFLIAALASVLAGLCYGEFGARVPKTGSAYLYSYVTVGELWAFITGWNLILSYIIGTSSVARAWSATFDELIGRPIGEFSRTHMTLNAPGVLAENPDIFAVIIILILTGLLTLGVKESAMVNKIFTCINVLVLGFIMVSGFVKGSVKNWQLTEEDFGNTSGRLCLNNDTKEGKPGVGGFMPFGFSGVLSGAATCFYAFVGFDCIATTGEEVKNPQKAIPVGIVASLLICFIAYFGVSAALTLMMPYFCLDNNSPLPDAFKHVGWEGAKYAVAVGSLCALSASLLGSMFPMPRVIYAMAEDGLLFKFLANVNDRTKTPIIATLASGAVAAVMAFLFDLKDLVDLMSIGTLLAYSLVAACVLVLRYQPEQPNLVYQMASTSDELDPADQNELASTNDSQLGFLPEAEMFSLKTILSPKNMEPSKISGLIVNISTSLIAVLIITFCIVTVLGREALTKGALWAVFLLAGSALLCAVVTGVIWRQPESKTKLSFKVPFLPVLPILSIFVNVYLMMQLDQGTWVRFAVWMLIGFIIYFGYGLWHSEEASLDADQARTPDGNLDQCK

On to “recombinant MuLV-E, ψCRE/BAG virions (from UniProt P03385 34-469)”, for which the numbers of G418-resistant colonies in [1] is greater than 1000 colonies; in assay [7], 1000 colonies; in [8], 0 colonies; in assay [12], 1000 colonies; in [13] it was 0 colonies. For the same substance, the colonies in [2], in assay [3], in assay [4], in assay [5], in assay [6] and in [9] was 500 colonies in each case. Besides, the colonies in assay [10] is 0 colonies; in assay [11], 500 colonies; in [14], 500 colonies; in assay [15] it was 500 colonies; in assay [16] it was 500 colonies.
